{
  "source": "paper PMC4585835",
  "about": "“A novel stearic acid-modified hirudin peptidomimetic with improved pharmacokinetic properties and anticoagulant activity” (Scientific Reports, 2015)",
  "target": "Rat thrombin (rat)",
  "assay": "enzyme inhibition kinetics (thrombin-catalysed hydrolysis of Chromozym TH)",
  "data": [
    {"substance": "Hirulog-1 (peptide)", "values": [
      {"measurement": "Ki", "value": 20.5, "unit": "nM"}
    ]}
  ]
}
